B1: oBS 34-mer (original TraN binding site) (dsDNA)
DNA 1: CGGAAATGTCAGGTTAAACATATTTACTTTTATA
DNA 2: TATAAAAGTAAATATGTTTAACCTGACATTTCCG
B2: random DNA 34-mer (dsDNA)
DNA 1: AGGGCGCACTTATACGCAGTAACTTCGTTACTTC
DNA 2: GAAGTAACGAAGTTACTGCGTATAAGTGCGCCCT

Legend:
Conditions in all cases: protein: recombinant; tags: N-terminal 7xHis (pQTEV); blunt
TraN_G47A-G48A = TraN_G47A-G48A (Enterococcus faecalis plasmid pIP501, UniProt Q7BVV5 1-122, G47A;G48A); assay: MST; MST in PBS-T (pH and temperature not stated); 50 nM RED-tris-NTA labelled His-protein, dsDNA 0.781 nM to 12.8 uM; Monolith NT.115, 60% LED and MST power
TraN_R23A-N24A-Q28A = TraN_R23A-N24A-Q28A (Enterococcus faecalis plasmid pIP501, UniProt Q7BVV5 1-122, R23A;N24A;Q28A); assay: as above
TraN_G100A-K101A [1] = biological target: T1, TraN_G100A-K101A (Enterococcus faecalis plasmid pIP501, UniProt Q7BVV5 1-122, G100A;K101A); assay: as above
TraN_H82A-R86A [2] = biological target: T2, TraN_H82A-R86A (Enterococcus faecalis plasmid pIP501, UniProt Q7BVV5 1-122, H82A;R86A); assay: as above
TraN = TraN (Enterococcus faecalis plasmid pIP501, UniProt Q7BVV5 1-122); assay: as above
TraN_G100A-K101A [3] = biological target: T1, TraN_G100A-K101A; assay: MST; no sigmoidal fit possible up to 12.8 uM DNA; extremely low affinity; MST in PBS-T (pH and temperature not stated); 50 nM RED-tris-NTA labelled His-protein, dsDNA 0.781 nM to 12.8 uM; Monolith NT.115, 60% LED and MST power
TraN_H82A-R86A [4] = biological target: T2, TraN_H82A-R86A; assay: as above

Binder	Kd (TraN_G47A-G48A)	Kd (TraN_R23A-N24A-Q28A)	Kd (TraN_G100A-K101A [1])	Kd (TraN_H82A-R86A [2])	Kd (TraN)	binding result (TraN_G100A-K101A [3])	binding result (TraN_H82A-R86A [4])
B1	48.8 ± 9.75 nM	154 ± 19.5 nM	406 ± 45.5 nM	425 ± 102 nM	11.7 ± 2.65 nM	–	–
B2	–	–	–	–	–	no binding	no binding

Reference: PMC10877727, “Effect of TraN key residues involved in DNA binding on pIP501 transfer rates in Enterococcus faecalis”
